The record followed here is publication PMC3671775.

As a reminder, the stoichiometry N is the number of molecules, sites or subunits per partner or assembly.

This assay has as its target extracellular fragment of human macrophage galactose receptor (MGL) isoform 3 (human). The experiment in a line: cross-linking.

“extracellular fragment of human macrophage galactose receptor (MGL) isoform 3 (domain or fragment)” had a stoichiometry N of 3.
